Measurements from the supplement of paper PMC7125110.
± gives the standard error. This sample holds only a part of the variants without activity.

B1: glmS ribozyme (parent)
chain: AUAAAAGCGCCAGAACUACAGAAAUGUAGUUGACGAGGAGGAGGUUUAUCGAAUUUUCGGCGGAUGCCUCCAAA

Tests used:
Details in all cases: with glucosamine-6-phosphate
glucosamine-6-phosphate [1] = variants of: B1; experiment: self-cleavage kobs at 40 uM GlcN6P; higher = faster cleavage; RNA array
Outline: (§1)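 Barcoded glmS ribozyme variants on sequenced MiSeq chips were transcribed in situ by E. coli RNA polymerase and tracked through a hybridised Cy3 probe at 37 °C. Glucosamine-6-phosphate (40 μM to 10 mM) in HEPES/KCl/Mg(OAc)2 buffer was flowed in, and tiles were imaged over ~14 h. Signals were normalised to baseline and to non-cleaving reference variants; per-tile medians were fit to one- or two-exponential decays to give kobs. kcat and KM came from weighted Michaelis–Menten fits across concentrations.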

glucosamine-6-phosphate [2] = variants of: B1; experiment: self-cleavage kobs at 160 uM GlcN6P; higher = faster cleavage; RNA array
Outline: as §1

glucosamine-6-phosphate [3] = variants of: B1; experiment: self-cleavage kobs at 10000 uM GlcN6P; higher = faster cleavage; RNA array
Outline: as §1

glucosamine-6-phosphate [4] = variants of: B1; experiment: self-cleavage kobs at 640 uM GlcN6P; higher = faster cleavage; RNA array
Outline: as §1

glucosamine-6-phosphate [5] = variants of: B1; experiment: self-cleavage kobs at 2500 uM GlcN6P; higher = faster cleavage; RNA array
Outline: as §1

Variant	self-cleavage kobs at 40 uM GlcN6P (glucosamine-6-phosphate [1]) [s⁻¹]	self-cleavage kobs at 160 uM GlcN6P (glucosamine-6-phosphate [2]) [s⁻¹]	self-cleavage kobs at 10000 uM GlcN6P (glucosamine-6-phosphate [3]) [s⁻¹]	self-cleavage kobs at 640 uM GlcN6P (glucosamine-6-phosphate [4]) [s⁻¹]	self-cleavage kobs at 2500 uM GlcN6P (glucosamine-6-phosphate [5]) [s⁻¹]
G13U A42C A53C C68A	< 1e-05				
A6U A39C U47C A64U	< 1e-05				
G9A U45C	< 1e-05	< 1e-05	< 1e-05		
A6C C8A	< 1e-05	< 1e-05	< 1e-05	< 1e-05	< 1e-05
C10U G44U U45A G59C C67G	< 1e-05		< 1e-05		
A6U G32C	< 1e-05	< 1e-05		< 1e-05	< 1e-05
G38U G60A	< 1e-05				
C8A G38C	< 1e-05	< 1e-05	< 1e-05	< 1e-05	
G38U U46A	< 1e-05	< 1e-05			< 1e-05
U31C A48U C50A A53C U65G G66A	< 1e-05		< 1e-05		< 1e-05
U46G G60U	< 1e-05	< 1e-05	< 1e-05		
G60C U69G	< 1e-05	< 1e-05	< 1e-05		
A36G U45C U56A	< 1e-05				
C8U G41A	< 1e-05	< 1e-05	< 1e-05	< 1e-05	< 1e-05
G51A G60C	< 1e-05			< 1e-05	
G7C U46G C67G	< 1e-05		< 1e-05		
G9A C58G	< 1e-05	< 1e-05		< 1e-05	< 1e-05
C34G U45G C70A	< 1e-05	< 1e-05	< 1e-05		< 1e-05
U30C U49A G60C	< 1e-05			< 1e-05	
G35A U49G C71A	< 1e-05		< 1e-05		
G9U A52G	< 1e-05	< 1e-05	< 1e-05		
G44U A48G	< 1e-05	< 1e-05	< 1e-05	< 1e-05	< 1e-05
C10U A33G C70U	< 1e-05		< 1e-05		

Variant	self-cleavage kobs at 40 uM GlcN6P (glucosamine-6-phosphate [1]) [s⁻¹]	self-cleavage kobs at 160 uM GlcN6P (glucosamine-6-phosphate [2]) [s⁻¹]	self-cleavage kobs at 10000 uM GlcN6P (glucosamine-6-phosphate [3]) [s⁻¹]	self-cleavage kobs at 640 uM GlcN6P (glucosamine-6-phosphate [4]) [s⁻¹]	self-cleavage kobs at 2500 uM GlcN6P (glucosamine-6-phosphate [5]) [s⁻¹]
G13C G32C U57G C70G	7.16e-05 ± 2.4e-05		9.13e-05 ± 1.7e-05		
A14U G63U A64U	< 1e-05				
C10A A64U	< 1e-05		< 1e-05	< 1e-05	< 1e-05
A6G A36C C71U	< 1e-05		< 1e-05		
C50U G51A	< 1e-05		< 1e-05	< 1e-05	< 1e-05
C34U U69G	0.000246 ± 5.1e-05	5.32e-05 ± 2.5e-05	0.000285 ± 4.5e-05	0.000467 ± 0.00011	0.00161 ± 0.00069
A14C G35U	< 1e-05	< 1e-05	< 1e-05		< 1e-05
C10G A36G	< 1e-05		< 1e-05	< 1e-05	
G41A G63A	< 1e-05		< 1e-05	< 1e-05	
G38C U55G	< 1e-05	< 1e-05	< 1e-05	< 1e-05	< 1e-05
A39U U55G	0.000507 ± 7.9e-05	0.00122 ± 0.0003	0.0282 ± 0.0058	0.00371 ± 0.00061	0.00715 ± 0.0012
C11U G40C U46G	< 1e-05				
C50G C68A	7.16e-05 ± 9.2e-06	0.000228 ± 3.1e-05	7.83e-05 ± 8.2e-06	0.000137 ± 2.4e-05	0.000116 ± 2.1e-05
U30A A53C G60U	< 1e-05	< 1e-05		< 1e-05	< 1e-05
C8U G9C G35U C61G	< 1e-05				
U47C A53G	0.000125 ± 2.2e-05	0.000176 ± 5.7e-05	0.00419 ± 0.00092	0.00114 ± 0.00018	0.00477 ± 0.0011
G43C A48U G51C G63A C71U	< 1e-05		< 1e-05		
A33G A39U G41C	< 1e-05		< 1e-05		
G32U U49C	< 1e-05	< 1e-05		< 1e-05	< 1e-05
G29A G38U A39G C58A G66A	< 1e-05				
A12U A42U G59C	< 1e-05				
U46G U47G G59A U65G	< 1e-05				
